Publication PMC6742747, “A Unique Homo-Hexameric Structure of 2-Aminomuconate Deaminase in the Bacterium Pseudomonas species AP–3” (Frontiers in Microbiology, 2019)

Target: the molecule itself
Assay: SEC; analytic Superdex 200 10/300 GL; 1 mg/ml; 50 mM HEPES, 150 mM NaCl, 1 mM DTT, 1 mM EDTA, 5% glycerol, pH 8.0; 0.3 ml/min, 16°C; mass calculated from the elution volume

Row | Protein | stoichiometry N
1 | AmnEΔ49–59 (enzyme, Pseudomonas sp. AP-3, UniProt Q9KWS2 1-142, looked up, 2-aminomuconate deaminase AmnE, Pseudomonas sp; AP-3, as m1 with residues Ala49-Pro59 of loop Lp2 deleted; The purification, including tag cleavage, is described once for the wild type and the mutants together; Trimer by SEC; also called AmnEΔLp2 (residues Ala49–Pro59); truncated mutant AmnEΔ49–59; source: E. coli BL21 (DE3) pLysS, purified (Ni-NTA, Resource Q, Superdex 75); not shown: His6, …) MVSKADNSAKLVEGKAKPMGSFPHVKRAGDFLFVSGTSSRRPDNTFVGNIELQTREVISNIRDILQSVGADLGDVVEVCSYLVNMNDFAAYNKVYAEFFDATGPARTTVAVHQLPHPQLVIEIKVVAYKPL | 3
2 | 2-aminomuconate deaminase (AmnE) from Pseudomonas sp. AP-3, wild type (enzyme, UniProt Q9KWS2 1-142, looked up, 2-aminomuconate deaminase AmnE, Pseudomonas sp; AP-3; protomer of 142 residues; Hexamer made of two trimers, by crystal structure, SEC and cross-linking; the database entry may name the gene amnD; After thrombin cleavage a few vector residues may remain at the N-terminus (surmised); also called wild-type AmnE; source: E. coli BL21 (DE3) pLysS, purified (Ni-NTA, Resource Q, Superdex 75); not …) MVSKADNSAKLVEGKAKPMGSFPHVKRAGDFLFVSGTSSRRPDNTFVGAEPDDTGRPRPNIELQTREVISNIRDILQSVGADLGDVVEVCSYLVNMNDFAAYNKVYAEFFDATGPARTTVAVHQLPHPQLVIEIKVVAYKPL | 6
3 | AmnE P126A (enzyme, Pseudomonas sp. AP-3, UniProt Q9KWS2 1-142, looked up, 2-aminomuconate deaminase AmnE, Pseudomonas sp; AP-3, as m1 with P126A; The purification, including tag cleavage, is described once for the wild type and the mutants together; Hexamer by SEC; also called mutant AmnE P126A; source: E. coli BL21 (DE3) pLysS, purified (Ni-NTA, Resource Q, Superdex 75); not shown: His6, N-terminal, cleaved) MVSKADNSAKLVEGKAKPMGSFPHVKRAGDFLFVSGTSSRRPDNTFVGAEPDDTGRPRPNIELQTREVISNIRDILQSVGADLGDVVEVCSYLVNMNDFAAYNKVYAEFFDATGPARTTVAVHQLAHPQLVIEIKVVAYKPL | 6
4 | AmnE R56A (enzyme, Pseudomonas sp. AP-3, UniProt Q9KWS2 1-142, looked up, 2-aminomuconate deaminase AmnE, Pseudomonas sp; AP-3, as m1 with R56A; The purification, including tag cleavage, is described once for the wild type and the mutants together; Trimer by SEC; also called single mutant of AmnE R56A; source: E. coli BL21 (DE3) pLysS, purified (Ni-NTA, Resource Q, Superdex 75); not shown: His6, N-terminal, cleaved) MVSKADNSAKLVEGKAKPMGSFPHVKRAGDFLFVSGTSSRRPDNTFVGAEPDDTGAPRPNIELQTREVISNIRDILQSVGADLGDVVEVCSYLVNMNDFAAYNKVYAEFFDATGPARTTVAVHQLPHPQLVIEIKVVAYKPL | 3
